By Kd is commonly meant the constant that tells how readily two partners part at equilibrium. A word on the stoichiometry N: it is the number of molecules, sites or subunits per partner or assembly.

From paper PMC11500311, “Binding of a single nitric oxide molecule is sufficient to disrupt DNA binding of the nitrosative stress regulator NsrR†” (Chemical Science, 2024) come the findings set out here.

Data set [1] has as its target T1, holo NsrR ([4Fe-4S] in each subunit) (Streptomyces coelicolor, UniProt Q9L132 1-148).
T1 sequence: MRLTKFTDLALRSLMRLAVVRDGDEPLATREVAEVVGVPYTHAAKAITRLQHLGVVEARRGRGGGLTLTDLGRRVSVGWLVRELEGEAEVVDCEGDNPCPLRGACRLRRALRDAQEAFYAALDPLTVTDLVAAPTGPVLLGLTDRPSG
The experiment in a line: native MS; 100 mM ammonium acetate pH 8; relative affinity; SPR: 10 mM HEPES, 150 mM NaCl, 0.05% polysorbate 20, pH 7.4, 25 C, anaerobic; native MS: 100 mM ammonium acetate pH 8 (30 C for nitrosylation). Particulars: protein: recombinant; tags: none; chain copies: 2; blunt.

Data set [2] deals with the molecule itself. The experiment in a line: native MS; as-isolated and reconstituted NsrR, 8 μM [4Fe–4S], ionised from 100 mM ammonium acetate pH 8.0, positive-mode ESI, no DNA.
Data set [3] concerns the target T1, holo NsrR ([4Fe-4S] in each subunit). The experiment in a line: native MS; about equal free and DNA-bound holo NsrR before NO; SPR: 10 mM HEPES, 150 mM NaCl, 0.05% polysorbate 20, pH 7.4, 25 C, anaerobic; native MS: 100 mM ammonium acetate pH 8 (30 C for nitrosylation). Particulars: protein: recombinant; tags: none; chain copies: 2; blunt.

B1: hmpA1 22 bp native MS (dsDNA)
DNA 1: AACACGAATATCATCTACCAAT
DNA 2: ATTGGTAGATGATATTCGTGTT
As to B1, in data set [1], the dissociation constant Kd worked out at 3 ± 0.1 µM.

B2: NsrR from Streptomyces coelicolor, non-tagged (natural protein)
chain: MRLTKFTDLALRSLMRLAVVRDGDEPLATREVAEVVGVPYTHAAKAITRLQHLGVVEARRGRGGGLTLTDLGRRVSVGWLVRELEGEAEVVDCEGDNPCPLRGACRLRRALRDAQEAFYAALDPLTVTDLVAAPTGPVLLGLTDRPSG
notes: NsrR, Rrf2-family transcriptional regulator of Streptomyces coelicolor A3, locus SCO7427; non-tagged construct from pNsrR; Homodimer; Each subunit can carry a [4Fe–4S] cluster: two clusters per dimer is holo, one is hemi-apo, none is apo; All three forms were observed as dimers by native MS (32 608, 32 257 and 31 907 Da); also called non-tagged NsrR; [4Fe–4S]; NsrR; source: E. coli BL21 λDE3 …
B2: in data set [2], the “stoichiometry N” value is 2.

B3: hmpA2 23 bp native MS (dsDNA)
DNA 1: AACAAGCATCTGAGATCCCAGTT
DNA 2: AACTGGGATCTCAGATGCTTGTT
In the case of B3, the binding result in data set [3] is recorded as “binds”.
